The RNAGym collection of RNA variant scans (doi:10.7554/elife.90254)

B1: LINE1-mini (parent)
chain: GGCAGAGCUCAACACAGCGUGGCAAAGUGGCUGUGGCUAGACUGCC

Variants of: B1
Assay: self-cleavage, relative activity (ratio to wild type); higher = more cleavage; in vitro, sequencing; the parent is a self-cleaving ribozyme

Variant | self-cleavage
G17C A39G | 0.1
G17C A39C | 0.11
G17C A39U | 0.29
A16U A25G | 0.07
A16U A25C | 0.03
A16U A25U | 0.1
G17A C31U | 0.35
G17A C31A | 0.13
G17A C31G | 0.08
G17A A39G | 0.06
G17A A39C | 0.07
G17A A39U | 0.06
A16G G22C | 0.1
A16G G22U | 0.63
A16G G22A | 0.71
A16G C45A | 0.14
A16G C45U | 0.45
A16G C45G | 0.11
A16G A24U | 0.62
A16G A24G | 0.16
A16G A24C | 0.13
A16U G27C | 0.16
A16U G27A | 0.59
A16U G27U | 0.13

Variant | self-cleavage
A16U G35C | 0.07
A16U G35U | 0.04
A16U G35A | 0.01
A16G U28A | 0.53
A16G U28C | 0.44
A16G U28G | 0.36
A16U G22A | 0.42
A16U G22U | 0.42
A16U G22C | 0.28
A16G C46A | 0.64
A16G C46U | 0.55
A16G C46G | 0.68
A16G G19A | 1.31
A16G G19C | 0.5
A16G G19U | 0.47
A16U G30U | 0.06
A16U G30C | 0.45
A16U G30A | 0.1
G17C A41G | 0.27
G17C A41U | 0.49
G17C A41C | 0.04
G17A C46U | 0.15
G17A C46G | 0.12
G17A C46A | 0.14

Variant | self-cleavage
A16C U38G | 0.03
A16C U38A | 0.13
A16C U38C | 0.1
A16G C31G | 0.02
A16G C31A | 0.03
A16G C31U | 0.03
A16G C42G | 0.03
A16G C42U | 0.09
A16G C42A | 0.07
A16U C18G | 0.05
A16U C18A | 0.05
A16U C18U | 0.07
G17A U34C | 0.06
G17A U34G | 0.02
G17A U34A | 0.04
G17C C37G | 0.04
G17C C37U | 0.08
G17C C37A | 0.07
G17A U28G | 0.1
G17A U28C | 0.97
G17A U28A | 0.26
G17A G40C | 0.09
G17A G40U | 0.07
G17A G40A | 0.06

Variant | self-cleavage
G17A U32C | 0.09
G17A U32A | 0.06
G17A U32G | 0.06
G17A A41U | 0.12
G17A A41C | 0.04
G17A A41G | 0.07
A16G G17U | 0.32
A16G G17A | 0.15
A16G G17C | 0.31
G17C A26C | 1.18
G17C A26G | 0.07
G17C A26U | 1.41
A16G G29A | 1.23
A16G G29C | 0.4
A16G G29U | 0.77
A16U U43C | 0.04
A16U U43G | 0.02
A16U U43A | 0.05
A16U G33U | 0.14
A16U G33C | 0.07
A16U G33A | 0.07
A16G G35A | 0.03
A16G G35C | 0.04
A16G G35U | 0.11

Variant | self-cleavage
A16G G21C | 0.34
A16G G21A | 0.7
A16G G21U | 0.48
G17A A25G | 0.07
G17A A25U | 0.24
G17A A25C | 0.07
G17A A24C | 0.06
G17A A24U | 0.38
G17A A24G | 0.18
G17A G21U | 0.83
G17A G21A | 0.22
G17A G21C | 0.74
A16G G40A | 0.05
A16G G40U | 0.05
A16G G40C | 0.07
G17A G19C | 1.09
G17A G19U | 0.25
G17A G19A | 0.62
G17C C18U | 0.08
G17C C18G | 0.07
G17C C18A | 0.1
A16U U32G | 0.29
A16U U32A | 0.55
A16U U32C | 0.18

Variant | self-cleavage
A16G A25U | 0.31
A16G A25C | 0.06
A16G A25G | 0.04
G17A G35U | 0.05
G17A G35C | 0.05
G17A G35A | 0.04
A16U G19C | 0.6
A16U G19U | 0.2
A16U G19A | 0.19
A16C U32A | 0.13
A16C U32C | 0.09
A16C U32G | 0.4
A16G A39G | 0.07
A16G A39U | 0.14
A16G A39C | 0.12
A16U C45A | 0.1
A16U C45U | 0.11
A16U C45G | 0.13
G17C G27A | 1.06
G17C G27C | 0.29
A16G A26U | 0.52
A16G A26C | 0.84
A16G A26G | 0.37
A16U A39U | 0.08

Variant | self-cleavage
A16U A39C | 0.08
A16U A39G | 0.07
G17C A24C | 0.19
G17C A24U | 0.6
G17C A24G | 0.71
A16U G40C | 0.05
A16U G40A | 0.04
A16U G40U | 0.07
G17A C45A | 0.13
G17A C45U | 0.25
G17A C45G | 0.04
A16G G33C | 0.05
A16G G33A | 0.03
A16G G33U | 0.04
A16U U28C | 0.55
A16U U28A | 0.26
A16U U28G | 0.22
G17A C37G | 0.05
G17A C37U | 0.05
G17A C37A | 0.05
A16U C37U | 0.06
A16U C37A | 0.11
A16U C37G | 0.07
